# B1: TPR t1 (parent)
# chain: GACCAAUCUGCCCUCAGAGCUCGAGAACAUCUUCGGAUGCAGAGGAGGCAGGCUUCGGUGGCGCGAUAGCGCCAACGUCCUCAACCUCCAAUGCAUCCCACCACAUGAUGAUGCCUGAAGAGCCUUGGUUUUUUG
# Variants of: B1
# Assay: polymerase ribozyme fitness, log enrichment relative to wild type (log ratio); higher = more active; in vitro selection for triplet polymerase activity
# Outline: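 Mutant libraries for each subunit of a heterodimeric triplet polymerase ribozyme were made by PCR and then transcribed. Each library underwent one round of in vitro selection in triplicate: annealing with a biotinylated primer, the partner subunit and triplets, frozen incubation at −7 °C, gel excision of extended constructs, streptavidin-bead capture and RT-PCR. Input and output libraries were Illumina-sequenced, and only genotypes with ≥10 input reads and ≥1 read per output were kept. Fitness is the logarithm, base 2, of genotype enrichment over wild-type enrichment, computed from inverse-variance-weighted replicate averages.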
row,Variant,polymerase ribozyme fitness (log ratio)
1,C34U U112C,-2.16
2,C97G C115G G120C,-5.54
3,U78A C114U,-1.83
4,U9G G61U C70U C82U C115U C123A,-3.33
5,G52A G93U G120A,-0.0896
6,C82U C86G A121G,1.16
7,C72U C88U U131C U133A,-0.924
8,U7C C11G G65C A83U G120C A121U,-6.35
9,C8G C15U C62U C89G G93A C101U G113C C114U G127C,-4.12
10,C49G,-0.312
11,A29U C34U A46U U87G,-5.9
12,A43U C88G A95U,-3.19
13,A46C U78C C101G,-2.77
14,A5U C13G C89U U92A G120A,-2.77
15,C20U C76U G93C,-3.66
16,A18G C70A,-4.01
17,C20U A46U,-2.88
18,G45A C124U,0.272
19,A43G G58A C85U U112C,-1.68
20,G69C U78G C115U U125A,-5.54
21,C11U A18G G45U G52U G61A A111G U130G U132A,-6.3
22,G17U G39U G110U,-4.99
23,A46U G57C C79U C85A G120U,-3.83
24,A41U G63A,-2.73

row,Variant,polymerase ribozyme fitness (log ratio)
1,C3U U112A G120U U125G,-2.25
2,C49G G52C,-0.352
3,C40U G52U C88U,-1.18
4,G60C C64U,-5.26
5,C4A C8U,-0.352
6,C12G G47U C64U,-1.58
7,C11G G19A A37U C85G,-3.64
8,G36A G60A C85U C124G,0.468
9,U81A A121U,1.04
10,C12U G35U C89G C115U,-6.55
11,C73A U112A A121U U125A,1.73
12,C13U A43G G60A U92G U116C,-3.1
13,C3U C11U G48A G117C C123G U129C U133C,-2.05
14,U9C A27U C73A C99A,-7.21
15,C12A C13A C62U U78G C115G C124G G127U,-6.43
16,G47A C64U C98U,-2.79
17,U32C C40G G45A G47A U54A G61U C88G G110C A111G G117A U125A,-7.2
18,A37U G77U G93C,-2.05
19,G47U G77U C94A U116C A121C,-4.66
20,G42C G77A,-1.99
21,G10U A103U,-4.38
22,G63U A83G C85A U129A,-2.64
23,U14A C40U G44C C49A,-3.39
24,C20U G52A G120A,-1.57

row,Variant,polymerase ribozyme fitness (log ratio)
1,U9G G23U A43U G71A G110C C124G U126G,-8.22
2,G60A G93C,-1.2
3,U54G G93U A95C C101A G120A,-2.9
4,C12A A18C U81G G120A,-5.16
5,C12A A91G U112A G127C,-1.8
6,C53G C56G C73A A84C,-2.01
7,A5U G63A U125A,-2.08
8,U38A G45A U129C,-2.96
9,C70A A111U A121U,-5.08
10,A18U G61A,-1.19
11,A5G G36U G63C A111C A119C,-4.21
12,G51U C72U U106A,-3.68
13,C22G G44C G48U A121U,-3.43
14,G61A A74C G128C,-5.31
15,C56G A84G,-1.43
16,G60A C98A C123U,-5.08
17,C22U U55G C72A U106A,-3.49
18,C88U C98G C114G,-6.17
19,C53A A74G,-0.303
20,C85A G107A U112G C114U G120U,-7.47
21,G36U C123G,0.712
22,U21G G51U G69C A103U A111U G122U,-7.01
23,C31A G45C C49U G69U C82U G107A,-5.05
24,G57U C72U U109A C114G,-5.21

row,Variant,polymerase ribozyme fitness (log ratio)
1,U96G U125A,-0.674
2,C12U U125A U126C,-0.829
3,A5C C97G U112A G122U,-5.96
4,C12U A41U A46C G48A C72U C88A C102U C114G C115U,-8.1
5,C94A A121U,1.37
6,C22A A46C U131A,-4.88
7,C49A A74G U116G,-1.13
8,C72U G117U,-2.27
9,C49G C62U G113U,-4.48
10,G69U C79U A111G U129C U133A,-0.673
11,C12A C13U G39U,-0.844
12,C73U C89A G120U,-2.25
13,C20A G52A G60A C98A C99U A105G C114A,-5.87
14,A46U C85U,-2.5
15,U21C G42A G52U C124A U125A,-1.88
16,G57U G60A C80U G122U,-2.06
17,A29U G77U,-1.77
18,U21C A95G,-0.566
19,C72A U112A,1.59
20,U54G G60A,-4.1
21,C31U C49G,-4.41
22,C13G A26G C70U C99U A119U,-4.5
23,G19C G63U C80A G110C,-6.93
24,U33C G61U,-3.04

row,Variant,polymerase ribozyme fitness (log ratio)
1,A90G C102A C124A,0.51
2,C8A G35C G63A C98A,-6.69
3,A43U U59A G60U,-1.17
4,A27C C94G,-3.57
5,A2C U112A G127A,-0.337
6,A119C C124G,-2.41
7,C101U A111C,0.393
8,G36A A41U C56G G57U,-3.93
9,A6U G17C A50C U87A,-4.69
10,C4U C70U G77C,-1.36
11,C70A U126G,-3.42
12,G71U G120A C123U U133G,-3.23
13,C15G G61A,-1.86
14,A41U A83U U87G U92A,-0.357
15,G45A C49G U106C U112A,-0.738
16,C11G C115U U130A,-0.677
17,C49A A83U,-0.343
18,C8G A83G U87C C101G,-1.58
19,C12U A29G U125A,-1.53
20,C12G C40G C62U,-0.941
21,C12U A84C C102A,-1.99
22,C28G G69A A121C,-5.9
23,C3U C8U A105G,-2.67
24,C70U C98A,-4.77

row,Variant,polymerase ribozyme fitness (log ratio)
1,C12A C124G,1.95
2,U9A C12U A27C C53U,-2.63
3,C70U C94G A95G,-1.78
4,C22A C73U A83G C115A,-4.8
5,G17U,-2.29
6,C4A C73U,-1.49
7,A5G C34G G69U C82G,-2.92
8,U96C A118U U129C,-0.593
9,U7C C13U,0.52
10,C11G G51A C53G G61U C124U U131G,-1.99
11,G17U U106A,-2.49
12,G10A C56G C82G C115G A121U,-0.467
13,G58C G71U C82G C88G,-2.93
14,C8A C13U U55G G93A,-0.498
15,A74U A118U,-0.576
16,C72G C88A A90U,-2.14
17,C88G C114U,-1.84
18,C34G G47C C104A C124A,-5.21
19,G39U C70U,-2.34
20,G36A G58A C62U U116A,-4.45
21,U7A C12G A27C G122A U130C,-2.81
22,A90C U106C U116G A119G U125G,-1.75
23,U9G C31A A46C G71A G110A,-6.51
24,A29G A118U G120C,-1.87

row,Variant,polymerase ribozyme fitness (log ratio)
1,G19A G47A,-4.12
2,C64U U92C,-1.23
3,C13G C72G C85A,-3.33
4,G19U G39C C53U G71U U81A G93U C114A,-4.82
5,A27U A29C G47A C53G A121C,-3.53
6,U106C U132A,-0.182
7,G65U C72A,-5.48
8,A90C A118C,-2.82
9,C3A C115U U125A U129G,-5.92
10,G48A C124U U133G,0.41
11,C49A A50C A119G,0.187
12,A37U C40G G63A A66G C82A U109G,-6.22
13,C28U C40A,-2.12
14,C53A C62U C97U G120C,0.732
15,A16U C89G C123G,-1.67
16,G52A C104U G113C,-2.55
17,C73A C94U U130A,-0.716
18,C15U A43U C72G C88U A91C G120C,-1.58
19,C85A U87G G120U,-0.802
20,C86G G113C,-2.62
21,C40A G60C,-3.13
22,G60A G71U,-4.5
23,C85A C101G,-3.91

# Source: the RNAGym collection of RNA variant scans (doi:10.1073/pnas.2313332121)
